Measurements reported in patent US20250019451A1 (HIFIBIO, published 2025).

T1: human CCR4 (human, UniProt P51679 1-360)
T1 construct: Expressed on cells for flow cytometry; also called hCCR4
T1 sequence: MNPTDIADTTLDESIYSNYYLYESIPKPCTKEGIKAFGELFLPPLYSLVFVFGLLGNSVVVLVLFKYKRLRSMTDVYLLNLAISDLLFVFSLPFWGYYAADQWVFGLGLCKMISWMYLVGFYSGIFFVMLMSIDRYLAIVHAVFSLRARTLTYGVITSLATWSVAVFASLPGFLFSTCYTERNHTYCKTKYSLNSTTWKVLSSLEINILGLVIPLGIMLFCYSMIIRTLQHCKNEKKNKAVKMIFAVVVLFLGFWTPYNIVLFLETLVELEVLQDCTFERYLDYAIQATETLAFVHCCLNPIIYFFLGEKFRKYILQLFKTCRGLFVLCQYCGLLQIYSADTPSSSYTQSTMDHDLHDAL

T2: mouse CCR8 (mouse, UniProt P56484 1-353)
T2 construct: Transiently expressed on ExpiHEK293 cells, fused to GFP via cleavable linker
T2 sequence: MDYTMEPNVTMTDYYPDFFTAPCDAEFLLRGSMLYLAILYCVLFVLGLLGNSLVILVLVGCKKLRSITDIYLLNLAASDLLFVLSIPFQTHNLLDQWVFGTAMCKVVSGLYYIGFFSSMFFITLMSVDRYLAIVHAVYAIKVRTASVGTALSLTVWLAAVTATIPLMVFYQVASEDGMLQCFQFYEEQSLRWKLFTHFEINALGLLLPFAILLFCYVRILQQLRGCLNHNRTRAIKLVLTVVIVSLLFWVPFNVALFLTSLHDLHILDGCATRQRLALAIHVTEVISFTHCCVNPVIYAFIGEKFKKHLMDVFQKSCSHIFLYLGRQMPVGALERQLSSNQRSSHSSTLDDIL


How the values were obtained:
human CCR8 [1] = target: T3, human CCR8 (human, UniProt P51685 1-355); assay: cell-based or functional assay
human CCR4 = target: T1, human CCR4; assay: flow cytometry on transiently transfected ExpiHEK293 cells
cynoCCR8 [2] = target: T4, cynoCCR8 (cynomolgus, UniProt O97665 1-356 (rhesus entry)); assay: flow cytometry titration on ExpiHEK293 cells transiently expressing cynoCCR8
T4 construct: Transiently expressed on ExpiHEK293 cells, fused to GFP via cleavable linker; also called cynomolgus CCR8
Method: (§1) Briefly, purified antibodies (saturating concentration of 50 nM, FIG. 3A or concentration range from 100 nM, 3-fold dilution, FIGS. 3B-3C) were incubated with 1×10⁵ ExpiHEK293 cells transiently transfected with either human (SEQ ID NO:11; Uniprot/Swiss-Prot: P51685), mouse CCR8 (SEQ ID NO: 64; Uniprot/Swiss-Prot: P56484), or cynoCCR8 (SEQ ID NO: 65; Uniprot/Swiss-Prot: G7NYJ2) fused to GFP protein via cleavable linker, for 30 minutes at 4° C. After washing, secondary anti-human-AF647 antibody (Jackson ImmunoResearch; West Grove, PA) was incubated at 12 nM for 30 minutes in PBS. After washing, cell pellets were resuspended in 50 μL PBS and samples were analyzed by flow cytometry on iQue cytometer (Sartorious, Goettingen, Germany) using Forecyt software (Intellicyt, Ann Arbor, MI). Mean of fluorescence intensity for the specific signal among GFP+ cells are represented in FIGS. 3A-3C. Titration curve of cross-reactive antibodies against mouse CCR8 and cyno CCR8 are presented in FIGS. 3B and 3C, respectively.

human CCR8 [3] = target: T3, human CCR8; assay: flow cytometry on transiently transfected ExpiHEK293 cells, 50 nM antibody
Method: as §1

mouse CCR8 [4] = target: T2, mouse CCR8; assay: flow cytometry titration on ExpiHEK293 cells transiently expressing mouse CCR8
Method: as §1

mouse CCR8 [5] = target: T2, mouse CCR8; assay: flow cytometry on ExpiHEK293 cells transiently expressing mouse CCR8
Method: as §1

human CCR8 [6] = target: T3, human CCR8; assay: flow cytometry on ExpiHEK293 cells transiently expressing human CCR8, 50 nM antibody
Method: as §1

cynoCCR8 [7] = target: T4, cynoCCR8; assay: flow cytometry on ExpiHEK293 cells transiently expressing cynoCCR8
Method: as §1

T4 sequence (O97665 other isoform, or with tags, fused parts or gaps): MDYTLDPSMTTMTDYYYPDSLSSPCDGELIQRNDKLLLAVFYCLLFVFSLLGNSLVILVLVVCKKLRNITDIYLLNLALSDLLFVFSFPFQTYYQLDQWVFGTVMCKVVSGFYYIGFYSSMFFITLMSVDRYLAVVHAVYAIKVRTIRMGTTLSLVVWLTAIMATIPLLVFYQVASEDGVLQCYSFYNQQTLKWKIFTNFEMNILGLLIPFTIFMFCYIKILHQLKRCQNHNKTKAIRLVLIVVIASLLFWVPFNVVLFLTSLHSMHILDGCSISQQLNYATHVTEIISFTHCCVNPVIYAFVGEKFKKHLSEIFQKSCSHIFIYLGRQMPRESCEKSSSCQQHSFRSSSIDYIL

Binder | binding result (human CCR4) | EC50 (cynoCCR8 [2]) [nM] | binding result (human CCR8 [3]) | EC50 (mouse CCR8 [4]) [nM] | binding result (mouse CCR8 [5]) | binding result (human CCR8 [6]) | binding result (cynoCCR8 [7]) | ADCC NK killing of M300.19 cells expressing low copies of CCR8, EC50 (human CCR8 [1]) [nM]
HFB11-10 parental antibody (non-humanized) in ADCC enhanced format (antibody, V domains shown) VH: EVQLVETGGGLVQPKGSLKLSCAASGFRFNTNAMNWVRQAPGKDLEWVARIRSKSNNYATYYADSVKDRFTISRDDSQSMLYLQMNNVKTEDTAMYYCVRGSDNNYYYAMDYWGQGTSVTVSS VL: DIVMTQAAPSVPVTPGESVSISCRSSKSLLHSNGNTYLYWFLQRPGQSPQLLIYRMSNLASGVPDRFSGSGSGTAFTLRISRVEAEDVGVYYCMQHLEYPFTFGSGTKLEIK | – | – | – | – | – | – | – | 0.003
HFB11-3 (antibody, human IgG1, V domains shown) VH: EVQLVESGGGLVQPQGSLKLSCAASGFSFNTYAMNWVRQAPGKGLQWVARIRSKSNNYATYYADSVKDRFTISRDDSESMLYLQMNNLKTEDAAMYYCVRGKDANYFYAMDYWGQGTSVTVSS VL: DIVMTQAAPSVPVTPGESVSISCRSSKSLLHSNGNTYLYWFLQRPGQSPQLLIYRMSNLASGVPDRFSGSGSGTAFTLRISRVEAEDVGVYYCMQHLEYPFTFGAGTKLELK | no binding (tested: 50 nM) | – | – | – | no binding (tested: 50 nM) | – | no binding (tested: 50 nM) | –
HFB11-10 (antibody, V domains shown, Mouse variable domains; also called H11-10) VH: EVQLVETGGGLVQPKGSLKLSCAASGFRFNTNAMNWVRQAPGKDLEWVARIRSKSNNYATYYADSVKDRFTISRDDSQSMLYLQMNNVKTEDTAMYYCVRGSDNNYYYAMDYWGQGTSVTVSS VL: DIVMTQAAPSVPVTPGESVSISCRSSKSLLHSNGNTYLYWFLQRPGQSPQLLIYRMSNLASGVPDRFSGSGSGTAFTLRISRVEAEDVGVYYCMQHLEYPFTFGSGTKLEIK | no binding (tested: 50 nM) | – | – | – | no binding (tested: 50 nM) | – | no binding (tested: 50 nM) | –
HFB11-8 (antibody, human IgG1, V domains shown) VH: EVQLVETGGGLVQPKGSLKLSCAASGFRFNTNAMNWVRQAPGKGLEWVARIRSKSNNYATHYVDSVKDRFTVSRDDSQSMLYLQMNNLKAEDTAMYYCVRGSDNNYYYAMDYWGQGTSVTVSS VL: DIVMTQAAPSVPVTPGESVSISCRSSKSLLHSNGNTYLYWFLQRPGQSPQLLIYRMSNLASGVPDRFSGSGSGTSFTLRISRVEVEDVGVYYCMQHLEYPFTFGSGTKLEIK | no binding (tested: 50 nM) | – | – | – | no binding (tested: 50 nM) | binds | no binding (tested: 50 nM) | –

More lines, main results first:

binding result (human CCR4) | EC50 (cynoCCR8 [2]) [nM] | binding result (human CCR8 [3]) | EC50 (mouse CCR8 [4]) [nM] | binding result (mouse CCR8 [5]) | binding result (human CCR8 [6]) | binding result (cynoCCR8 [7]) | Binder | ADCC NK killing of M300.19 cells expressing low copies of CCR8, EC50 (human CCR8 [1]) [nM]
no binding (tested: 50 nM) | 1.8 | binds | – | – | – | – | HFB11-19 (antibody, human IgG1, V domains shown) VH: QVQLQQSGAELVKPGASVKLSCKASGYTFTDYIIHWVKQRSGQGLEWIGWFSPRNNYVKYNERFTDKATLTADKSSNTVYMELSSLTSEDSAVYFCSRHGRNSIGFAYWGQGTLVTVSA VL: DIVMTQAAPSVPVTPGESVSISCRSSKSLLNSNGNTYLYWFLQRPGQSPQLLIYRMSNLASGVPDRFSGSGSGTAFTLRISRVEAEDVGVYYCMQHLEYPYTFGGGTKLEIK | –
no binding (tested: 50 nM) | – | binds | < 1 | – | – | – | HFB11-2 (antibody, human IgG1, V domains shown) VH: EVQLVESGGGLVQPKGSLKLSCAASGFSFNTYAMNWVRQAPGKGLEWVARIRSKSNNYATYYADSVKDRFTISRDDSERMLYLQMNNLKTEDTAMYYCVRGGSYYSNHYFDYWGQGTTLTVSS VL: DIVMTQAAPSVPVTPGESVSISCRSSKSLLHSNGNTYLYWFLQRPGQSPQLLIYQMSNLASGVPDRFSGSGSGTAFTLRISRVEAEDVGVYYCMQHLEYPFTFGAGTKLELK | –
no binding (tested: 50 nM) | – | – | – | no binding (tested: 50 nM) | binds | no binding (tested: 50 nM) | HFB11-5 (antibody, human IgG1, V domains shown) VH: EVQLVESGGGLVQPRGSLKLSCTASGFSFNAYAMNWVRQAPGKGLEWVARIRTKSNNYATYYADSVKDRFTISRDDSESMLYLQMKNLKTEDTAMYYCVRGGYGNGGYYFDYWGQGTTLTVSS VL: DIVMTQAAPSVTVTPGESASISCRSSKSLLHRNGNSYLYWFLQRPGQSPQLLIYRISNLASGVPDRFSGSGSGTAFTLRISRVEAEDVGVYYCMQHLEYPFTFGSGTKLEIK | –
no binding (tested: 50 nM) | 15.8 | binds | 53 | – | – | – | HFB11-21 (antibody, human IgG1, V domains shown, also called HFB-21) VH: QVQLQQPGAELVKPGASVKLSCKASGYTFISYWMHWVKQRPGRGLEWIGRIDPNSGKTKYNEKFKTKATLTVDKSSSTAYMHLNSLTSDDSAVYYCAREGWGDYWGQGTTLTVSS VL: DIVLTQSPASLAVSLGQRATISCRASESVDNYGISFMHWYQQKPGQPPRLLIYRASNLASGIPARFSGSGSSTDFTLTINPVETDDIATYYCQQSNKDPRTFGGGTKLEIK | –
